The results in this text go back to US20090042805A1.

The assay addresses other caspases. As to the kind of experiment: cell-based or functional assay.

Ac-VDVAD-aldehyde [Ac-VDVAD-cho]: the inhibition of the cleavage of AMC substrates by human recombinant caspases (cross-reaction) is under 20%.
